Assay results from patent publication US20130266515, “Specific Ligand for Annexin 2” (Commissariat A L'Energie Atomique ET AUX Energies …, published 2013).

Legend:
annexin 2 [1] = biological target: T1, annexin 2 (Homo sapiens, UniProt P07355 SEQ:2-339); test: MDA-MB-231 cells, Scatchard; Cmax 167 pM; settings: label: 32P, phycoerythrin, Alexa Fluor 546, biotin or Quantum Dot depending on assay; predicted secondary structure with potential pseudoknots
Method: (§1) The binding curves were obtained for each cell type. On the basis of the specific binding, and using the Scatchard representation, the Kd and the number of targets per cell were determined for each of the cell types. The target of the ACE8 aptamer appears to be highly abundant at the surface of two human cancer lines (MCF-7 and A-431).

[2] = biological target: annexin 2/S100A10 heterotetrameric complex (Bos taurus, UniProt P04272;P60902 P04272:2-339,P60902:2-97); test: filter; 0-12.5 nM protein, 1 pmol RNA in 200 ul RPMI 1640, 3 ug yeast tRNA, ambient temperature; very strong affinity compared with control; settings: tags: purified from bovine lung, Interchim A80109B; chain copies: 2 annexin 2 + 2 S100A10 (stated); label: 32P, phycoerythrin, Alexa Fluor 546, biotin or Quantum Dot depending on assay; predicted secondary structure with potential pseudoknots
Method: 1 pmol of ACE8 aptamer or of the control sequence was then preincubated with various concentrations of an annexin 2/S100A10 heterotetrameric complex. The fraction of ACE8 aptamer or of control sequence bound to the annexin 2/S100A10 heterotetramer was retained on a nitrocellulose filter and analyzed and quantified using a Storm Phosphorimager. […] FIG. 23 represents the quantification of the amount of oligonucleotides retained on the filter as a function of the concentration of annexin 2/S100A10 heterotetramer.
For this, the oligonucleotides (ACE8 aptamer or control sequence (SEQ ID NO: 11)) were dephosphorylated at their 5′ end for 30 min at 37° C. with 2.5 U of Antarctic Phosphatase (New-England Biolabs) per nmol of 2′F-Py RNA. After inactivation of the enzyme at 88° C. for 15 min, the 2′F-Py RNA was precipitated with ethanol in the presence of 5 μl/ml of a neutral coprecipitant (Linear Polyacrylamide or LPA) (Ambion). The oligonucleotides were then labeled with ATP [gamma-³²P] using T4 kinase (invitrogen) according to the supplier's instructions. The 2′F-Py RNAs (2.3 MBq, i.e. 63nCi/pmol or 63nCi/pmol⁻¹) were subsequently purified by exclusion chromatography (Bio-Spin Sp30 Chromatography Columns (Biorad)). […]

annexin 2 [3] = biological target: T1, annexin 2; test: A-431 cells, Scatchard; Cmax 450 pM; settings: label: 32P, phycoerythrin, Alexa Fluor 546, biotin or Quantum Dot depending on assay; predicted secondary structure with potential pseudoknots
Method: as §1

annexin 2 [4] = biological target: T1, annexin 2; test: U87-MG cells, Scatchard; Cmax 245 pM; settings: label: 32P, phycoerythrin, Alexa Fluor 546, biotin or Quantum Dot depending on assay; predicted secondary structure with potential pseudoknots
annexin 2 [5] = biological target: T1, annexin 2; test: HEK-293 cells, Scatchard; Cmax 269 pM; settings: label: 32P, phycoerythrin, Alexa Fluor 546, biotin or Quantum Dot depending on assay; predicted secondary structure with potential pseudoknots

T1 sequence (P07355 2-339): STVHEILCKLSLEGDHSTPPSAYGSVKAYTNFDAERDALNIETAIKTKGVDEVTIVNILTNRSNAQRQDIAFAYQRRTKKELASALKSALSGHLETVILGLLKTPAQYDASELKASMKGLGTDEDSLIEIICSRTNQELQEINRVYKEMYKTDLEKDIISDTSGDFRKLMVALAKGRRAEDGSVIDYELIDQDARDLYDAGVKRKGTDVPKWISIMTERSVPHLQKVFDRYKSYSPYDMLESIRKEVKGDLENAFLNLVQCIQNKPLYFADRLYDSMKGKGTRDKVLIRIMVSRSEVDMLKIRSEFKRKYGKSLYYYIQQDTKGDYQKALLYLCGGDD
Sequence of annexin 2/S100A10 heterotetrameric complex (P04272 2-339, chain 1 of 2): as the sequence (P07355 2-339) above, with A65E, I159V, P222C, D229E, R244K, R308K counted along it
Sequence of annexin 2/S100A10 heterotetrameric complex (P60902 2-97, chain 2 of 2): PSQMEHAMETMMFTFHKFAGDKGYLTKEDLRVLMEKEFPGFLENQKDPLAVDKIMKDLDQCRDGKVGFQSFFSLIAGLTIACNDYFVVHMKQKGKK

B1: ACE8 (ssRNA)
RNA: GGGAGAUGAUCCGUUGAUGCGAGGGAACGCAAGAACUGAGGCCAUGAGGCGCCUUCCCUUGCUCAGGACGCAAGUCGUCGUUCGUAGGCAGAAUC
modifications: 2'-F pyrimidines, 2'-OH purines
- Kd (annexin 2 [1]): 4.4 nM
- binding result [2]: binds
- Kd (annexin 2 [3]): 5.3 nM
- Kd (annexin 2 [4]): 12.7 nM
- Kd (annexin 2 [5]): 4.4 nM
